The target of test [1] is T1, h-β2 appendage (residues 700–937), 6xHis (human, UniProt P63010 700-937).
T1 sequence (looked up): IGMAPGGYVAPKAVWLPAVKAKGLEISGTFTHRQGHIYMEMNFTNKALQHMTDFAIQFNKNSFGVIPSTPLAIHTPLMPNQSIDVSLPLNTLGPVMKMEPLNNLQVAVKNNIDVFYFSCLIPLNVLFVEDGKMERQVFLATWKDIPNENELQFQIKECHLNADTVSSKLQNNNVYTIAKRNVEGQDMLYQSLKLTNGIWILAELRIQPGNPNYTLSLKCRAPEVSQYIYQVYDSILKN
Kind of test: ITC. (In general: In ITC the heat of successive injections is recorded.)

The target in test [2] is T2, h-γ appendage (residues 704–822), 6xHis (human, UniProt O43747 704-822).
T2 sequence (looked up): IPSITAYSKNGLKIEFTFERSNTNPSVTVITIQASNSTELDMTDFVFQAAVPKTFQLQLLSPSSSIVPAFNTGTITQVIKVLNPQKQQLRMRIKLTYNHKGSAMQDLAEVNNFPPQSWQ
Description: ITC.

B1: epsinR N3 construct (291–426), GST cleaved (domain or fragment, human, UniProt Q14677 291-426, looked up)
chain: AHYTGDKASPDQNASTHTPQSSVKTSVPSSKSSGDLVDLFDGTSQSTGGSADLFGGFADFGSAAASGSFPSQVTATSGNGDFGDWSAFNQAPSGPVASSGEFFGSASQPAVELVSGSQSALGPPPAASNSSDLFDL
On to B1, for which the “stoichiometry N” value in test [1] and in test [2] was 2 appendage domains per epsinR N3 throughout.

These data come from paper PMC2172650 (The Journal of Cell Biology, 2003).
